# Results taken from publication PMC11162469, “Discovery of RXFP2 genetic association in resistant hypertensive men and RXFP2 antagonists for the treatment of resistant hypertension” (Scientific Reports, 2024).
# Substitutions are numbered along the chain they refer to.
# T1: linker-less human LDLa peptide (Q8WXD0 43-80) (Homo sapiens, UniProt Q8WXD0, not fully specified)
# T1 construct: relaxin family peptide receptor 2 (RXFP2), human, LDLa module without the linker, residues 43-80; also called LDLa linker-less domain
# T1 chain: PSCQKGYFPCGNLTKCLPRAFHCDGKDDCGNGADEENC
# B1: RXFP2 mAb 4F6 (antibody, V domains shown)
# VH: EVQLQQSGPELVKPGASVKMSCKASGYTFTNYVLHWVKQKPGQGLEWIGYINPYNDGSKYNEKFKGRATLTSDKSSSTAYMELSSLTSEDSAVYYCARGGWLLDYFDYWGQGTTLTVSS
# VL: DVLMTQSPLSLPVSLGEQASISCRSSQSIVHSDGDTYLEWYLQKPGQSPNLLIYKVSNRFSGVPDRFSGSGSGTDFTLKISRVEAEDLGVYYCFQGSHVPPTFGGGTKLEIK
# notes: heavy chain variable domain; rat IgG2b heavy chain constant region (rat IgG2b backbone, in-house construct); Recombinant in a rat IgG2b backbone; found as a mouse hybridoma clone; source: Expi293, transfected, purified (Protein G)
# B2: RXFP2 mAb 4G6 (antibody, V domains shown)
# VH: EVQLQQSGPELVKPGASVKLSCKASGYTFTSYVMHWVKQKPEQGLEWIGYKNPSNDGIKYNEKFKGKATLTSDKSSNIAYMELFSLTSEDSAVYYCARSDFGSVWAMDYWGQGTSVTVSS
# VL: SIVMTQTPKFLLVSAGDRVTITCKASQSVNDDIVWYQQKPGQSPKLLIYYASNRYTGVPDRFTGSGYGTDFTFTISTVQAGDLAVYFCQQDYSSPFTFGSGTKLEIK
# notes: as for B1
# B3: RXFP2 mAb 4B1 (antibody, V domains shown)
# VH: QVQLQQSGAELVRPGSSVRISCKASGYAFSNSWINWVKQRPGQGLEWMGQIYPGDGNTNYNGRFKDKATLTADKSSSTAYMQLSSLTSEDSAVYFCARDHNYWGQGTTLTVSS
# VL: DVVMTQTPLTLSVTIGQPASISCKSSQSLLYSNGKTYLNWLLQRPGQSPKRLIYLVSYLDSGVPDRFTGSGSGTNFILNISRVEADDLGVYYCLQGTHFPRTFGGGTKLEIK
# notes: as for B1
# B4: RXFP2 mAb 1F2 (antibody, V domains shown)
# VH: QVQLKQSGPGLVQPSQSLSITCTVSGFSLTAYGVNWVRQSPGKGLEWLGVIWSGGNTDYNAPFISRLSITKDNSKSQVFFKMNSLEADDTAIYYCARAKGYYAMDYWGQGTSVTVSS
# VL: DIQMTQSPASLSVSVGESVTITCRATENIYSNLVWYQQKQGQSPQLLVYAVTSLADGVPSRFSGSGSGTQYSLKINSLQSEDFGTYYCQHFWGTPYTFGGGTKLEIK
# notes: as for B1
# B5: RXFP2 mAb 4H2 (antibody, V domains shown)
# VH: QVQLRQSGPSLVQPSQSLSITCTVSGFSLTNYGVHWVRQSPGKGLEWLGVIWRGGNTDHNAAFMSRLSITKDNSESQVFFKMNSLQVDDTAIYYCAKAEGYYALDYWGQGTSVTVYS
# VL: B4 VL with S18T, T26S, V34A, Q42K, S53N, T85S, Y96W
# notes: as for B1
# B6: RXFP2 mAb 3H1 (antibody, V domains shown)
# VH: QVQLKETGPGLVAPSQSLSITCTVSGFSLTNYGVNWVRQPPGKGLEWLVVIWSDGSTNYNSALKSRLSISKDNSKSQVFLKMNSLQTDDTAMYYCARQQGYYAMDYWGQGTSVIVSS
# VL: B4 VL with S18T, T26S, V34A, Q42K, S53N, T85S, T94P
# notes: as for B1
# B7: RXFP2 mAb 4H5 (antibody, V domains shown)
# VH: QVQLKQSGPGLVQPSQSLSITCTVSGFSLTNYGVHWVRQSPGKGLEWLGVIWRDGNTDYNAAFMSRLSITKDNSKSQVFFEMNSLQVDDTAIYYCCRGDGYYAMGYWGQGTSVTVSS
# VL: B4 VL with S18T, T26S, V34A, K39R, Q42R, V51A, S53N, T85N, T94S, Y96R
# notes: as for B1
# B8: RXFP2 mAb 3F1 (antibody, V domains shown)
# VH: QVQLKESGPGLVAPSQSLSITCTVSGFSLTDYGVSWIRQPPGKGLEWLGVIWGGGSTDYNPALKSRLSISKDNSKSQVFLKMNSLQADDTAMYYCVKHEGYYAMDYWGQGTSVTVSS
# VL: B4 VL with S18T, T26S, V34A, Q42K, Q45H, S53N, T85S
# notes: as for B1
# B9: RXFP2 mAb 4B8 (antibody, V domains shown)
# VH: QVQLKQSGPGLVQPSQSLSITCTVSGFSLSRYGVHWVRQSPGKGLEWLGVIWSGGSTEYNAVFKSRLSISKDNSKSQVFFKMNSLQANDTAIYYCVRADGYYAMEYWGQGTSVTVSS
# VL: B4 VL with S18T, T26S, V34A, Q42K, S53N, T85N
# notes: as for B1
# B10: RXFP2 mAb 2D4 (antibody, V domains shown)
# VH: QVQLKESGPGLVAPSQSLSITCTVSGFSLTTYGISWVRQPPGKGLEWLGVIWTGGGTNYNSALKSRLSISKDNSKSQVFLKMNSLQTDDTARYYCARTEGYYVMDYWGQGTSVTVSS
# VL: B4 VL with S18T, T26S, Q42K, V51A, S53N, S77N, T94P, Y96W
# notes: as for B1
# B11: RXFP2 mAb 3G4 (antibody, V domains shown)
# VH: QVQLKESGPGLVAPSQSLSITCTVSGFSLTSYGVSWVRQPPGKGLEWLGVIWGDGSTNYHSALISRLSISKDNSKSQVFLKLNSLQTDDTATYYCAKSLGYYAMDYWGQGTSVTVSS
# VL: B4 VL with S18T, T26S, Q42K, V51A, S53N, D56E, T85S, T94P, Y96W
# notes: as for B1
# B12: RXFP2 mAb 4A5 (antibody, V domains shown)
# VH: DVQLVESGGGLVQPGGSRKLSCAASGFTFSTFGMHWVRQAPEKGLEWVAYISSGSSTIYYADTVKGRFTISRDNPKNTLFLQMTSLRSDDTAMYYCSRSYYGSAHYFDYWGQGTTLTVSS
# VL: DIQMTQSPASLSVSVGETVTITCRASENIYSNLAWYQQKQGKSPQLLVYVATNLADGVPSRFSGSGSGTQYSLRINNLQSEDFGNYYCQHFWGTPPTFGGGTKLEIK
# notes: as for B1
# B13: RXFP2 mAb 4G7 (antibody, V domains shown)
# VH: EVKLVESGGGLVQPGASLRLSCATSGFTFTDYYMSWVRQPPGKALEWLGFIRNKATGYTTEYSASVKGRFTISRDNSQSILYLQMNTLRAEDSATYYCARDLYYGDWYFDVWGAGTTVTVSS
# VL: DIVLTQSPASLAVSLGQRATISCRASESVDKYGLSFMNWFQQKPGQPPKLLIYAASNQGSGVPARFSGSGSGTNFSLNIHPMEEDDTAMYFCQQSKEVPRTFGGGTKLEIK
# notes: as for B1
# B14: RXFP2 mAb 1G1 (antibody, V domains shown)
# VH: EVQLQQSGPELVKPGASVKMSCKASGYTFTDYNMHWVKQKPGQGLEWIGYINPYNDGTEYNEKFKGKATLTSDKSSSTAYMDLSSLTSEDSAVYYCARGLWFAMNYWGQGTSVTVSS
# VL: DIQMTQSSSSFSVSLGDRVTITCKASEDIYNRLAWYQQKPGNTPRLLISGATILETGVPSRFSGSGSGKDYTLSIISLQTEDVATYYCQQYWIIPPTFGGGTKLEIK
# notes: as for B1
# B15: RXFP2 mAb 3F3 (antibody, V domains shown)
# VH: QVQLQQPGSVLVRPGASVKLSCKASGYIFTSYWMHWVKQRPGQGLEWIGEIYPNSGRTSYNEKFKGKATVTVDTSSSTAYVDLSSLTSEDSAVYYCASGGHWFAYWGQGTLVTVSA
# VL: B14 VL with T43A, I53S, T56A, I76T, A84S, I94T, P96Y
# notes: as for B1
# B16: RXFP2 mAb 2H3 (antibody, V domains shown)
# VH: QVTLKESGPGILQPSQTLSLTCSFSGFSLSTSGMSVGWIRQPSGKGLEWLAHIWWNDDKYYNPALKSRLTISKDTSNNQVFLKIASVVTADTATYYCARIGYYDGSPHAMDYWGQGTSVTVSS
# VL: not shown
# notes: as for B1
# B17: RXFP2 mAb 4H1 (antibody, V domains shown)
# VH: QIQLVQSGPELKKPGETVKISCKTSGYTFTKYPMHWVKQAPGEGLKWMGWINTYSGLPTFADDFKGRFAFSLETSANTADLQINNLKNEDMATYFCAREGKKLSGYFDYWGQGTTLTVSS
# VL: DIKMTQSPSSMYASLGERVTITCKASQDINSYLTWFQQKPGQSPKTLIYRANRFVDGVPSRFSGSGSGQDYSLTITSLEYEDMGIYYCLQYDEFPYTFGGGTQLEIK
# notes: as for B1
# Molecular target: T1, linker-less human LDLa peptide (Q8WXD0 …)
# Experiment: ELISA; human LDLa peptide (Q8WXD0 43-80) immobilised at 1 µg/mL in PBS on Maxisorp plates overnight at 4 °C; purified antibodies from 5 µg/mL, diluted 1:2 for 8 points, 1 h at room temperature; HRP secondary antibody, TMB
# Details: both partners purified
row,binding result,Binder
1,binds,B1
2,binds,B2

row,Binder,binding result
1,B3,no binding (tested: 5 µg/mL (highest antibody concentration))

# Molecular target: T2, human LDLa-linker protein (huRXFP2-LDLa-linker(38-105)) (Homo sapiens, UniProt Q8WXD0)
# T2 construct: relaxin family peptide receptor 2 (RXFP2), human, LDLa module and linker, residues 38-105; Expressed as LDLa-linker, enterokinase site, rat Fc, 8xHis; The Biacore methods say only 'LDLa-linker protein'; also called human LDLa-linker domain; source: Expi293, transfected, purified (Histrap excel, SEC); enterokinase digestion, Hispur Ni resin, Superdex 200; not shown: rat Fc, C-terminal, cleaved; …
# T2 sequence (Q8WXD0 38-105): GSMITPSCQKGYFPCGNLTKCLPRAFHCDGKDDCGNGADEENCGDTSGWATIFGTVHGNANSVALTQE
# Experiment: SPR; Biacore S200; goat anti-rat Fc gamma immobilised on a Series S CM5 chip, purified recombinant rat anti-RXFP2 antibodies captured at 5 µg/mL; rat or human LDLa-linker protein flowed as analyte at 20, 10, 5, 2.5, 1.75 and 0 nM; 1:1 fit model
# Details: both partners purified
Kd,Binder,binding result
11.7 nM,B1,
,B4,no binding (tested: 20 nM (highest analyte concentration))
,B5,no binding (tested: 20 nM (highest analyte concentration))
,B6,no binding (tested: 20 nM (highest analyte concentration))
,B7,no binding (tested: 20 nM (highest analyte concentration))
,B8,no binding (tested: 20 nM (highest analyte concentration))
,B9,no binding (tested: 20 nM (highest analyte concentration))
,B10,no binding (tested: 20 nM (highest analyte concentration))
,B11,no binding (tested: 20 nM (highest analyte concentration))
2.91 nM,B2,
,B12,no binding (tested: 20 nM (highest analyte concentration))
,B13,no binding (tested: 20 nM (highest analyte concentration))
2.75 nM,B3,
,B14,no binding (tested: 20 nM (highest analyte concentration))
,B15,no binding (tested: 20 nM (highest analyte concentration))
,B16,no binding (tested: 20 nM (highest analyte concentration))
,B17,no binding (tested: 20 nM (highest analyte concentration))

# Molecular target: T3, rat LDLa-linker protein (ratRXFP2-LDLa-linker(20-88)) (Rattus norvegicus, UniProt Q5ECL0)
# T3 construct: relaxin family peptide receptor 2 (RXFP2), rat, LDLa module and linker, residues 20-88; Expressed as LDLa-linker, enterokinase site, rat Fc, 8xHis; The Biacore methods say only 'LDLa-linker protein'; also called rat LDLa-linker domain; source: Expi293, transfected, purified (Histrap excel, SEC); enterokinase digestion, Hispur Ni resin, Superdex 200; not shown: rat Fc, C-terminal, cleaved; 8xHis, …
# T3 sequence (Q5ECL0 entry or part of it): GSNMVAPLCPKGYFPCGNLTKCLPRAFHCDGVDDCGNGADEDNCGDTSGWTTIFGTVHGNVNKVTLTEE
# Experiment: as above
# Details: both partners purified
row,Kd,Binder
1,1.7 nM,B1
2,0.69 nM,B4
3,0.32 nM,B5
4,1.89 nM,B6
5,0.35 nM,B7
6,1.24 nM,B8
7,0.55 nM,B9
8,0.52 nM,B10
9,2.07 nM,B11
10,0.21 nM,B2
11,4.23 nM,B12
12,1.97 nM,B3
13,0.18 nM,B14
14,11.4 nM,B15
15,1.01 nM,B17
